These results are taken from paper PMC6691574.

A short description of data set [1]: fluorescent FA uptake kit, time course, SGC 7901. The note with it: glycan lost; control: wild-type CD36.
Data set [2] in a line: Nile red staining after PA, SGC 7901. Particulars: glycan lost; control: wild-type CD36.

B1: CD36: S468A (protein)
parent chain: MGCDRNCGLIAGAVIGAVLAVFGGILMPVGDLLIQKTIKKQVVLEEGTIAFKNWVKTGTEVYRQFWIFDVQNPQEVMMNSSNIQVKQRGPYTYRVRFLAKENVTQDAEDNTVSFLQPNGAIFEPSLSVGTEADNFTVLNLAVAAASHIYQNQFVQMILNSLINKSKSSMFQVRTLRELLWGYRDPFLSLVPYPVTTTVGLFYPYNNTADGVYKVFNGKDNISKVAIIDTYKGKRNLSYWESHCDMINGTDAASFPPFVEKSQVLQFFSSDICRSIYAVFESDVNLKGIPVYRFVLPSKAFASPVENPDNYCFCTEKIISKNCTSYGVLDISKCKEGRPVYISLPHFLYASPDVSEPIDGLNPNEEEHRTYLDIEPITGFTLQFAKRLQVNLLVKPSEKIQVLKNLKRNYIVPILWLNETGTIGDEKANMFRSQVTGKINLLGLIEMILLSVGVVMFVAFMISYCACRSKTIK
On to B1, for which the “other: transport activity” value in data set [1] and in data set [2] was “decreases” each time.

B2: CD36: S468A/T470A (protein)
parent chain: MGCDRNCGLIAGAVIGAVLAVFGGILMPVGDLLIQKTIKKQVVLEEGTIAFKNWVKTGTEVYRQFWIFDVQNPQEVMMNSSNIQVKQRGPYTYRVRFLAKENVTQDAEDNTVSFLQPNGAIFEPSLSVGTEADNFTVLNLAVAAASHIYQNQFVQMILNSLINKSKSSMFQVRTLRELLWGYRDPFLSLVPYPVTTTVGLFYPYNNTADGVYKVFNGKDNISKVAIIDTYKGKRNLSYWESHCDMINGTDAASFPPFVEKSQVLQFFSSDICRSIYAVFESDVNLKGIPVYRFVLPSKAFASPVENPDNYCFCTEKIISKNCTSYGVLDISKCKEGRPVYISLPHFLYASPDVSEPIDGLNPNEEEHRTYLDIEPITGFTLQFAKRLQVNLLVKPSEKIQVLKNLKRNYIVPILWLNETGTIGDEKANMFRSQVTGKINLLGLIEMILLSVGVVMFVAFMISYCACRSKTIK
With B2, the “other: transport activity” value in data set [1] and in data set [2] was “decreases” throughout.

B3: CD36: T470A (protein)
parent chain: MGCDRNCGLIAGAVIGAVLAVFGGILMPVGDLLIQKTIKKQVVLEEGTIAFKNWVKTGTEVYRQFWIFDVQNPQEVMMNSSNIQVKQRGPYTYRVRFLAKENVTQDAEDNTVSFLQPNGAIFEPSLSVGTEADNFTVLNLAVAAASHIYQNQFVQMILNSLINKSKSSMFQVRTLRELLWGYRDPFLSLVPYPVTTTVGLFYPYNNTADGVYKVFNGKDNISKVAIIDTYKGKRNLSYWESHCDMINGTDAASFPPFVEKSQVLQFFSSDICRSIYAVFESDVNLKGIPVYRFVLPSKAFASPVENPDNYCFCTEKIISKNCTSYGVLDISKCKEGRPVYISLPHFLYASPDVSEPIDGLNPNEEEHRTYLDIEPITGFTLQFAKRLQVNLLVKPSEKIQVLKNLKRNYIVPILWLNETGTIGDEKANMFRSQVTGKINLLGLIEMILLSVGVVMFVAFMISYCACRSKTIK
For B3, the “other: transport activity” value in data set [1] and in data set [2] was “decreases” in each case.
